US20010016351

Test system: GFP-CBP fusion protein (green fluorescent protein with C-terminal thrombin-cleavable calmodulin binding peptide tag, expressed from GFP Clone No. 2995-87.6 in BL21(DE3) cells) [GFP: P42212]

thrombin
cleavage of the fusion protein by thrombin at 6 h: Fifty percent cleavage was observed at 6 h
cleavage of the fusion protein by thrombin at 24 h: 95 percent cleavage was achieved at 24 h
